Measurements from patent US20260274933A1 (Innovent, published 2026).
Blank lines part the entries; values can stand above or below the binder they belong to.

Assays:
[1] = target: T1, biotin-labeled VEGF A165 (ACRO, Catalog No. VE5-H8210) (human, UniProt P15692-4 27-191, biotin-labeled); assay: blocking ELISA: biotin VEGF A165 captured on streptavidin, binding of VEGFR-Fc blocked; value printed as EC50 in the table under the curves, unit from the axis
T1 construct: also called hVEGF A
Protocol: (§1) SA (Thermo, Catalog No. 21125) was diluted to 1 μg/mL, and 100 μL/well of SA was plated in a microplate at 4° C. overnight. The plate was washed 3 times with PBST and blocked with 3% BSA for 1.5 h. […] The plate was washed 6 times with PBST, the color development was performed with TMB for 5 min, and OD450 nm was read after stopping.

[2] = target: T2, hAng2-biotin (R&D, Catalog No. BT623B/CF) (human, UniProt O15123 68-496, limits assumed, biotinylated); assay: blocking ELISA: hTie2 coated, binding of biotinylated hAng2 blocked; unit from the axis
T2 construct: also called Ang2-Bio (R&D, Catalog No. BT623B/CF); Recombinant Biotinylated hAngiopoietin-2 protein (R&D)
T2 sequence (looked up): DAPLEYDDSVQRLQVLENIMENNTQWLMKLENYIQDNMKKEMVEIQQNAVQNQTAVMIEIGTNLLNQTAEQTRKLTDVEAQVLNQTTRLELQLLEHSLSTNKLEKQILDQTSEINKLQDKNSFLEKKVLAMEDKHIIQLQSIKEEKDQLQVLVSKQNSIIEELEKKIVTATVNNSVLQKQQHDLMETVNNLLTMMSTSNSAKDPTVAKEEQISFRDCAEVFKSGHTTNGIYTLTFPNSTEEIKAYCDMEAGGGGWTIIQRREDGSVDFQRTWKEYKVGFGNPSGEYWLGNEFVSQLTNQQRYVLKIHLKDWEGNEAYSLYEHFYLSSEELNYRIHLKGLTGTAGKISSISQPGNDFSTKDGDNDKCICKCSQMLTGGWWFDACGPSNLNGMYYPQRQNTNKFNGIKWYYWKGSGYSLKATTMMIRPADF
Protocol: (§2) The antigen-antibody mixture obtained as described above was incubated in the microplate for 90 min and washed three times with PBS, and the supernatant was discarded. 100 μL of Avidin-HRP (Invitrogen) diluted in a 1:10000 ratio was added to each well, incubated at room temperature for 30 min, and washed six times with PBS. A TMB chromogenic solution (solarbio) was added to the plate at 100 μL/well for color development for 1 min, and the reaction was stopped by adding a stop solution (Solarbio) at 100 μL/well.

[3] = target: T3, hAng2-Fc (Beijing Sino Biological, Catalog No. 10691-H02H) (human, UniProt O15123 19-496); assay: flow cytometry blocking: binding of hAng2-Fc to Tie2 on 293-Tie2 cells blocked, Mean PE-A; unit from the axis
T3 construct: Bought fusion protein; also called human Ang2-hFc; recombinant hAng2-Fc protein; not shown: human Fc of the bought fusion protein
T3 sequence (looked up): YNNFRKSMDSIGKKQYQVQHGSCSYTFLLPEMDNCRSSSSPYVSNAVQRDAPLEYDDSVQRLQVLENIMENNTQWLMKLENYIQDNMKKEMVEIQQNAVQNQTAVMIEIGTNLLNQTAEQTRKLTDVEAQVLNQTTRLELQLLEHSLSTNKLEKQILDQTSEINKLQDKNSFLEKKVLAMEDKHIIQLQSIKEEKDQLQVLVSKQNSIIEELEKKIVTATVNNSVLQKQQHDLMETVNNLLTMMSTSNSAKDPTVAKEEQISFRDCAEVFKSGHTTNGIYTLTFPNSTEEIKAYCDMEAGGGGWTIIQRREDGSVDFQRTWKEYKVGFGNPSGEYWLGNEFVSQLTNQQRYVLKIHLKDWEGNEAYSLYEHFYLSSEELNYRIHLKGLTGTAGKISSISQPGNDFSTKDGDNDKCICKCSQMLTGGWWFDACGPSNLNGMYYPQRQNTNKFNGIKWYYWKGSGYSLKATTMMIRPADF
Protocol: (§3) The cells were centrifuged at 300 g for 5 min. The supernatant was discarded. Then the cells were resuspended in an antigen-antibody mixture. The mixture was incubated on ice for 30 min. PBS was added at 100 μL/well. After centrifugation at 300 g for 5 min, the mixture was washed once with PBS. 100 μL of goat anti-human IgG-PE (SouthernBiotech) diluted in a 1:200 ratio was added to each well. After a 20-min ice bath, PBS was added at 100 μL/well. The mixture was centrifuged at 300 g for 5 min, prior to one wash with PBS. The cells were resuspended with 100 μL of PBS. The cell fluorescence signal values were measured by a flow cytometer (BD Biosciences). According to MFI, the concentration-dependent curve was fitted with GraphPad.

[4] = target: T2, hAng2-biotin (R&D, Catalog No. …); assay: blocking ELISA: hTie2 coated, binding of biotinylated hAng2; fit value printed for the flat curve of the negative control, unit from the axis
Protocol: as §2

[5] = target: T3, hAng2-Fc (Beijing Sino Biological, …); assay: flow cytometry blocking: binding of hAng2-Fc to Tie2 on 293-Tie2 cells, Mean-PE-A; fit value printed for the flat curve of the negative control, unit from the axis
Protocol: as §3

[6] = target: T1, biotin-labeled VEGF A165 (ACRO, Catalog …); assay: blocking ELISA: biotin VEGF A165 captured on streptavidin, binding of VEGFR-Fc; fit value printed for the flat curve of the negative control, unit from the axis
Protocol: as §1

[7] = target: T2, hAng2-biotin (R&D, Catalog No. …); assay: blocking ELISA: hTie2 coated, binding of biotinylated hAng2; fit value printed for the flat curve of the negative control, unit from the axis; remark: listed apart in the source
Protocol: as §2

[8] = target: T3, hAng2-Fc (Beijing Sino Biological, …); assay: flow cytometry blocking: binding of hAng2-Fc to Tie2 on 293-Tie2 cells, Mean PE-A; fit value printed for the flat curve of the negative control, unit from the axis
Protocol: as §3

human VEGF165 (R&D) [9] = target: T4, human VEGF165 (R&D) (human, UniProt P15692-4 27-191); assay: BLI (ForteBio), bivalent binding
T4 construct: Antigen of the ForteBio assay
T4 sequence (P15692 other isoform, or with tags, fused parts or gaps limits assumed): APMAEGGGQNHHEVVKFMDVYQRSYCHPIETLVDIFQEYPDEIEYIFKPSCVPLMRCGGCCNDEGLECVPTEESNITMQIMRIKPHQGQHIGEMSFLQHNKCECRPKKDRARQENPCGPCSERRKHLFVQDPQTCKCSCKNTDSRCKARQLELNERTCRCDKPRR

[10] = target: T3, hAng2-Fc (Beijing Sino Biological, …); assay: flow cytometry blocking: binding of hAng2-Fc to Tie2 on 293-Tie2 cells blocked, Mean-PE-A; unit from the axis
Protocol: as §3

human VEGF165 (R&D) [11] = target: T4, human VEGF165 (R&D); assay: BLI (ForteBio), monovalent binding
human Ang2 [12] = target: T5, human Ang2 (human, UniProt O15123 19-496, limits assumed); assay: BLI (ForteBio), bivalent binding
T5 construct: Antigen of the ForteBio assay; also called human Ang2 (Beijing Sino Biological)
T5 sequence (looked up): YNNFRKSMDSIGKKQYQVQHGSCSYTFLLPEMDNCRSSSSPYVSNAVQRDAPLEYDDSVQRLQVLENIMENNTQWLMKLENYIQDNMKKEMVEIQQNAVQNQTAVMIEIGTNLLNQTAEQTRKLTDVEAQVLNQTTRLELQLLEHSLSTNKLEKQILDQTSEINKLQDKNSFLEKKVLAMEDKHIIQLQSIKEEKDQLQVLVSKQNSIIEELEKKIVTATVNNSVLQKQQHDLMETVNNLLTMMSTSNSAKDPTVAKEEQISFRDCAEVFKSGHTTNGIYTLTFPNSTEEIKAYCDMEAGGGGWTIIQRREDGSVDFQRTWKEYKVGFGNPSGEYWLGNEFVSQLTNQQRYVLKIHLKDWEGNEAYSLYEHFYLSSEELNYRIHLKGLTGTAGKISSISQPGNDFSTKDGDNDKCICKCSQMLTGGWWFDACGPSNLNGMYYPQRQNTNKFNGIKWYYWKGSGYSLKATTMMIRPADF

human Ang2 [13] = target: T5, human Ang2; assay: BLI (ForteBio), monovalent binding
human Ang2 [14] = target: T5, human Ang2; assay: BLI (ForteBio), bivalent binding; * dissociation constant exceeding ForteBio detection limits
[15] = target: T2, hAng2-biotin (R&D, Catalog No. …); assay: blocking ELISA: Tie2-Fc coated, binding of hAng2-biotin blocked
Protocol: The plate was washed 3 times with PBST and blocked with 3% BSA for 1.5 h. […] The plate was washed 3 times with PBST, Avidin HRP (1:2000) was added, and the plate was incubated for 35 min. The plate was washed 6 times with PBST, the color development was performed with TMB for 5 min, and OD450 nm was read after stopping.

T1 sequence (P15692 other isoform, or with tags, fused parts or gaps limits assumed): as the sequence (P15692 other isoform, or with tags, fused parts or gaps limits assumed) above

B1: BI-anti-VEGF (VHH)
VHH: DVQLVESGGGLVQPGGSLRLSCAASGRTFSSYSMGWFRQAPGKEREFVVAISKGGYKYDAVSLEGRFTISRDNAKNTVYLQINSLRPEDTAVYYCASSRAYGSSRLRLADTYEYWGQGTLVTVSS
notes: also called Positive control antibody BI-anti-VEGF
- EC50 [1]: 0.034 µg/mL

B2: IEX04-008 (bispecific antibody)
chain: EVQLLESGGGLVQPGGSLRLSCAASGSIFSINAMGWHRQAPGKQRELVATMIGGSSTFYAESVQGRFTISRDNSKNTVYLQMNSLRAEDTAVYYCYADVTGRSGTSIWNKRDDYWGQGTQVTVSSGGGGSGGGGSEVQLLESGGGLVQPGGSLRLSCAASGSIFSINAMGWHRQAPGKQRELVATMIGGSSTFYAESVQGRFTISRDNSKNTVYLQMNSLRAEDTAVYYCYADVTGRSGTSIWNKRDDYWGQGTQVTVSSGGGGSGGGGSEVQLLESGGGLVQPGGSLRLSCAASGFALDYYAIGWFRQAPGKGLEGVSCISSGEGSTYYADSVKGRFTISRDNSKNTVYLQMNSLRAEDTAVYYCATDSRGDDVACEGLRRNEYDYWGQGTLVTVSS
notes: also called LA46E11.8 (VHH) + linker + LA46E11.8 (VHH) + LA24C11.10
- IC50 [2]: 13.5 nM
- IC50 [3]: 0.554 nM

B6: LA46E11 (VEGFA VHH) (VHH)
VHH: QVQLEESGGGLVQPGGSLRLSCVASGSIFSINAMGWHRQAPGSQRELVATMIGGSSTFYADSVNGRFTISRDNAKNTVYLQMNSLKLEDTAVYYCYADVTGRSGTSIWNKRDDYWGQGTLVTVSS
notes: Alpaca anti-VEGF A VHH; also called LA46E11 supernatant
- Kd (human VEGF165 (R&D) [9]): 1.11 nM
- koff (human VEGF165 (R&D) [9]): 0.0002 s⁻¹
- kon (human VEGF165 (R&D) [9]): 179000 M⁻¹ s⁻¹
- Kd (human VEGF165 (R&D) [11]): 7.74 nM
- koff (human VEGF165 (R&D) [11]): 0.00142 s⁻¹
- kon (human VEGF165 (R&D) [11]): 184000 M⁻¹ s⁻¹
- EC50 [1]: 0.344 µg/mL

B8: LA24C11 (Ang2 VHH) (VHH)
VHH: QVQLVESGGGLVQPGGSLRLSCAASGFALDYYAIGWFRQAPGKEREGVSCISSGDGSTYYADSVKGRFTISRDNAKNTVYLQMNSLKPEDTAVYYCATDSRGDDVACEGLRRNEYDYWGQGTQVTVSS
notes: Alpaca anti-Ang2 VHH
- Kd (human Ang2 [12]): 0.867 nM
- kon (human Ang2 [12]): 231000 M⁻¹ s⁻¹
- Kd (human Ang2 [13]): 2.18 nM
- koff (human Ang2 [13]): 0.00166 s⁻¹
- kon (human Ang2 [13]): 761000 M⁻¹ s⁻¹
- koff (human Ang2 [14]): ≤ 0.0002 s⁻¹

Results, then the binder that gave them:

- IC50 [4]: ~0.596 nM
- IC50 [5]: ~10.1 nM
- EC50 [6]: 0.00208 µg/mL
- IC50 [7]: ~6.79 nM
- IC50 [8]: ~0.019 nM
B3: IgG (antibody, V domains shown)
VH: EVRLLESGGGLVQPGGSLRLSCAASGFTFSNYAMGWVRQAPGKGLEWVSAISGSGGSTYYADSVKGRFTTSRDDSKNALYLQMNSLRAEDTAVYYCARGGPGWYAADVWGQGTTVTVSS
VL: DIQMTQSPSSLSASVGDRVTITCRASQSISSYLNWYQQKPGKAPKLLIYAASSLQSGVPSRFSGSGSGTDFTLTISSLQPEDFATYYCQQADLPAFAFGGGTKVEIKR
notes: also called Negative control IgG

- Kd (human VEGF165 (R&D) [9]): 0.2 nM
- koff (human VEGF165 (R&D) [9]): 0.000213 s⁻¹
- kon (human VEGF165 (R&D) [9]): 1.06e+06 M⁻¹ s⁻¹
B4: LA42F8.5 (VHH)
VHH: EVQLLESGGGLVQPGGSLRLSCAASGFNLDYYPIGWFRQAPGKGLEGVSCISSVGSTNYADSVKGRFTISRDNSKNTVYLQMNSLRAEDTAVYYCAADPLCSALILPPPFLSWGQGTQVTVSS
notes: also called humanized LA42F8

- IC50 [2]: 7.1 nM
- IC50 [10]: 0.685 nM
B5: IEX04-012 (bispecific antibody)
chain: DIQLTQSPSSLSASVGDRVTITCSASQDISNYLNWYQQKPGKAPKVLIYFTSSLHSGVPSRFSGSGSGTDFTLTISSLQPEDFATYYCQQYSTVPWTFGCGTKVEIKGGGGSGGGGSGGGGSGGGGSEVQLVESGGGLVQPGGSLRLSCAASGYDFTHYGMNWVRQAPGKCLEWVGWINTYTGEPTYAADFKRRFTFSLDTSKSTAYLQMNSLRAEDTAVYYCAKYPYYYGTSHWYFDVWGQGTLVTVSSGGGGSGGGGSGGGGSEVQLLESGGGLVQPGGSLRLSCAASGFALDYYAIGWFRQAPGKGLEGVSCISSGEGSTYYADSVKGRFTISRDNSKNTVYLQMNSLRAEDTAVYYCATDSRGDDVACEGLRRNEYDYWGQGTLVTVSS
notes: also called Ranibizumab scFv containing disulfide bond mutations + linker + LA24C11.10; recombinant anti-VEGF A/anti-Ang2 bispecific antibody

- Kd (human VEGF165 (R&D) [9]): 0.788 nM
- koff (human VEGF165 (R&D) [9]): 0.000332 s⁻¹
- kon (human VEGF165 (R&D) [9]): 421000 M⁻¹ s⁻¹
B7: LA46E11.8 (VEGFA VHH) (VHH)
VHH: EVQLLESGGGLVQPGGSLRLSCAASGSIFSINAMGWHRQAPGKQRELVATMIGGSSTFYAESVQGRFTISRDNSKNTVYLQMNSLRAEDTAVYYCYADVTGRSGTSIWNKRDDYWGQGTQVTVSS
notes: Humanized anti-VEGF A VHH; also called humanized LA46E11

- Kd (human Ang2 [12]): ≤ 0.828 nM
- kon (human Ang2 [12]): 242000 M⁻¹ s⁻¹
- koff (human Ang2 [14]): ≤ 0.0002 s⁻¹
- IC50 (read off the curve) [15]: ~0.06 µg/mL
B9: LA24C11.10 (Ang2 VHH) (VHH)
VHH: EVQLLESGGGLVQPGGSLRLSCAASGFALDYYAIGWFRQAPGKGLEGVSCISSGEGSTYYADSVKGRFTISRDNSKNTVYLQMNSLRAEDTAVYYCATDSRGDDVACEGLRRNEYDYWGQGTLVTVSS
notes: Humanized anti-Ang2 VHH; also called hz24C11.10; LA24C11.0
